Patent publication US10774132B2, “Ultralong complementarity determining regions and uses thereof” (THE SCRIPPS RESEARCH INSTITUTE, priority 2012, dated 2020)

Legend:
Mouse NFS-60 cells = assay: Proliferation assay on mouse NFS-60 cells (AlamarBlue); assay type: cell-based; details: for F.I. (fluorescence at 595 nm, AlamarBlue, cell viability): 72 hours
Experimental: Mouse NFS-60 cells were obtained from American Type Culture Collection (ATCC), VA, and cultured in RPMI-1640 medium supplemented with 10% fetal bovine serum (FBS), 0.05 mM 2-mercapoethanol and 62 ng/ml human macrophage colony stimulating factor (M-CSF). For proliferation assay, mouse NFS-60 cells were washed three times with RPMI-1640 medium and resuspended in RPMI-1640 medium with 10% FBS and 0.05 mM 2-mercapoethanol at a density of 1.5×10^5 cells/ml. In 96-well plates, 100 μl of cell suspension was added into each well, followed by the addition of varied concentrations of bGCSF, BLV1H12 antibody, and the immunoglobulin constructs described herein, Equal volume of PBS buffer was added into the control wells. The plates were incubated at 37° C. in a 5% CO2 incubator for 72 hours. Cells were then treated with AlamarBlue (Invitrogen) ( 1/10 volume of cell suspension) for 4 hours at 37° C. Fluorescence at 595 nm for each well was read to indicate the cell viability.

Human mPB CD34+ cells = assay: Proliferative activity on human granulocyte progenitors (flow cytometry); assay type: cell-based; details: for Number of CD45RA-CD41-: 7 days, flow cytometry
Experimental: Human mPB CD34^+ cells were purchased from AllCells. Cells were resuspended in HSC expansion medium (StemSpan SFEM, StemCell Technologies) supplemented with 1× antibiotics and the following recombinant human cytokines: thrombopoietin, IL6, Flt3 ligand, and stem cell factor (100 ng/mL, R & D Systems), then plated in 96-well plates (1000 cells per well), with varied concentrations of BLV1H12-bGCSF fusion antibodies. Cells were cultured for 7 days at 37° C. in a 5% CO2 incubator, then analyzed by flow cytometry to measure cell number and expression of CD45ra and CD41. Cells were stained in staining medium (HBSS supplemented with 2% FBS and 2 mM EDTA) at 4° C. for 1 h with PECy7 anti-CD45ra and eFluor 450 anti-CD41 (eBiosciences), then washed with staining medium and analyzed. Multicolor analysis for cell phenotyping was performed on a LSR II flow cytometer (Becton Dickinson). FIGS. 10A-10E and Tables 9-10 show the human granulocyte progenitor cell proliferative activities of the Ab-GCSF fusion antibodies.

[1] = Pharmacokinetics in mice (ELISA of blood samples); assay type: in vivo; details: 70 μg injected, BALB/c mice
Experimental: For PK study in mice, 70 μg of the immunoglobulin constructs described herein were injected into 3 BALB/c mice per group. Blood samples were drawn from time 0 to 14 days with extended intervals and analyzed by ELISA using anti-human IgG Fc antibody with horseradish peroxidase (HRP) labeled (KPL) and anti-6×His antibody (“6×His” disclosed as SEQ ID NO: 511) with HRP labeled (Clontech). Data were normalized by taking maximal concentration at the first time point (30 min).

mice neutrophils = assay: Neutrophil counts in mice, 10th day after injection; assay type: in vivo; details: blood stained and counted at the 10th day post-injection
Experimental: On the 10th day after injection of BLV1H12-bGCSF fusion antibodies into mice for PK study, blood samples were drawn from the mice and stained using the Diff Quick Staining Kit (Thermo Fisher Scientific, IL). Neutrophils and white blood cells were counted under microscope and the percentages of neutrophils were analyzed. FIGS. 12A-12B and Table 12 show proliferative activities of BLV1H12-bGCSF fusion antibodies on mice neutrophils that are blood stained and counted at the 10th day post-injection.

CXCR1 = biological target: T1, CXCR1 (Homo sapiens, UniProt P25024); assay: Flow cytometry binding to CXCR1-U2OS cells; details: CXCR1-U2OS cells; cell culture supernatant; flow cytometry
T1 construct: host or cells: U2OS
T1 sequence (P25024 1-350): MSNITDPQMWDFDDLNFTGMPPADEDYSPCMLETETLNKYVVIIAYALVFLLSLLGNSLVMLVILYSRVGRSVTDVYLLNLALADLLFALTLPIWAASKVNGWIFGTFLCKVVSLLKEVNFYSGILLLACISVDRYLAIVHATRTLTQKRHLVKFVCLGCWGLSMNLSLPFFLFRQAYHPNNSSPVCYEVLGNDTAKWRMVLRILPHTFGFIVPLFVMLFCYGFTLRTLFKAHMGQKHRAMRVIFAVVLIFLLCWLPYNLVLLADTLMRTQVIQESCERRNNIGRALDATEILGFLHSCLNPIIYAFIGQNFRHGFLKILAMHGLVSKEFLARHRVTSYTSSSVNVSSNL
Experimental: Briefly, a cell line expressing functionally validated CXCR1 derived from U2OS cells was obtained from DiscoveRx and cultured per manufacturer's instructions (Cat #93-0226C3, DiscoveRx Corporation, Freemont, Calif.). The parental cell line U2OS was obtained from ATCC and cultured under the same conditions as the CXCR1 cells. Cell culture supernatants from Example 2 above were then tested for binding to cells by flow cytometry. The adherent U2OS or CXCR1-U2OS cells were dissociated with Accutase (Innovative Cell Technologies, Inc., San Diego, Calif.), neutralized with an equal volume of media containing 10% serum, centrifuged at 1000 g, and resuspended in PBS with 2% BSA. Next, cells were dispensed into microtiter plates to achieve between 30,000 to 300,000 cells per well, centrifuged again, and resuspended in cell culture supernatant containing expressed IgG, or a dilution of IgG-containing cell culture supernatant. A fluorescent-conjugated anti-Human Fc antibody was used to detect binding of the expressed BLV1H12-IL8 fusion proteins to cells.

B1: Ab: bovine BLV1H12 antibody with ultralong CDR3, no insertion; scaffold of the fusions and control (antibody)
heavy: QVQLRESGPSLVKPSQTLSLTCTASGFSLSDKAVGWVRQAPGKALEWLGSIDTGGNTGYNPGLKSRLSITKDNSKSQVSLSVSSVTTEDSATYYCTSVHQETKKYQSCPDGYRERSDCSNRPACGTSDCCRVSVFGNCLTTLPVSYSYTYNYEWHVDVWGQGLLVTVSS
light: QAVLNQPSSVSGSLGQRVSITCSGSSSNVGNGYVSWYQLIPGSAPRTLIYGDTSRASGVPDRFSGSRSGNTATLTISSLQAEDEADYFCASAEDSSSNAVFGSGTTLTVLGQPKSPPSVTLFPPSTEELNGNKATLVCLISDFYPGSVTVVWKADGSTITRNVETTRASKQSNSKYAASSYLSLTSSDWKSKGSYSCEVTHEGSTVTKTVKPSECS
- proliferative activity on mouse NFS-60 cells (Mouse NFS-60 cells): lack of proliferative activity
- F.I. (fluorescence at 595 nm, AlamarBlue, cell viability) (Mouse NFS-60 cells; 0.45725 ng/mL): 1040
- F.I. (fluorescence at 595 nm, AlamarBlue, cell viability) (Mouse NFS-60 cells; 1.37174 ng/mL): 1010
- F.I. (fluorescence at 595 nm, AlamarBlue, cell viability) (Mouse NFS-60 cells; 4.11523 ng/mL): 983.3
- F.I. (fluorescence at 595 nm, AlamarBlue, cell viability) (Mouse NFS-60 cells; 12.34568 ng/mL): 971.8
- F.I. (fluorescence at 595 nm, AlamarBlue, cell viability) (Mouse NFS-60 cells; 37.03704 ng/mL): 960.5
- F.I. (fluorescence at 595 nm, AlamarBlue, cell viability) (Mouse NFS-60 cells; 111.11111 ng/mL): 991.83
- F.I. (fluorescence at 595 nm, AlamarBlue, cell viability) (Mouse NFS-60 cells; 333.33333 ng/mL): 964.798
- proliferative activity on human granulocyte progenitor cells (Human mPB CD34+ cells): lack of proliferative activity
- Number of CD45RA-CD41- (Human mPB CD34+ cells; 0.28959 ng/mL): 3666
- Number of CD45RA-CD41- (Human mPB CD34+ cells; 0.86877 ng/mL): 3839
- Number of CD45RA-CD41- (Human mPB CD34+ cells; 2.60631 ng/mL): 3852
- Number of CD45RA-CD41- (Human mPB CD34+ cells; 23.45679 ng/mL): 3519
- Number of CD45RA-CD41- (Human mPB CD34+ cells; 70.37037 ng/mL): 3541
- Number of CD45RA-CD41- (Human mPB CD34+ cells; 211.11111 ng/mL): 3606
- Number of CD45RA-CD41- (Human mPB CD34+ cells; 5700 ng/mL): 4100
- Percentage (blood level normalized to first time point, 30 min) ([1]; day 0.021): 100.00%
- Percentage (blood level normalized to first time point, 30 min) ([1]; day 0.042): 106.09%
- Percentage (blood level normalized to first time point, 30 min) ([1]; day 0.083): 95.88%
- Percentage (blood level normalized to first time point, 30 min) ([1]; day 0.125): 86.54%
- Percentage (blood level normalized to first time point, 30 min) ([1]; day 0.250): 74.26%
- Percentage (blood level normalized to first time point, 30 min) ([1]; day 1.000): 52.43%
- Percentage (blood level normalized to first time point, 30 min) ([1]; day 2.000): 39.46%
- Percentage (blood level normalized to first time point, 30 min) ([1]; day 3.000): 36.97%
- Percentage (blood level normalized to first time point, 30 min) ([1]; day 8.000): 45.44%
- Percentage (blood level normalized to first time point, 30 min) ([1]; day 10.000): 40.98%
- Percentage (blood level normalized to first time point, 30 min) ([1]; day 14.000): 51.96%
- Percentage of Neutrophil (mice neutrophils): 18.81
- Median Arbitrary Fluorescence Units (IgG binding) (CXCR1): 4 AFU
